Assay results: US10801046B2, “Methods and materials for biosynthesizing multifunctional, multivariate molecules via carbon chain modification” (INVISTA NORTH AMERICA S.A.R.L., priority 2016, dated 2020)

Legend:
[1] = Carboxylate reductase activity, 7-hydroxyheptanoate to 7-hydroxyheptanal, NADPH consumption at 340 nm; type: biochemical; conditions: enhanced by gene product of sfp, 20 min, against empty vector control, FIG. 44
Description: A sequence encoding a His-tag was added to the genes from Mycobacterium marinum, Mycobacterium smegmatis, Segniliparus rugosus, Mycobacterium smegmatis, Mycobacterium massiliense, and Segniliparus rotundus that encode the carboxylate reductases of SEQ ID NOs: 25 (GenBank Accession No. ACC40567.1), 27 (GenBank Accession No. ABK75684.1), 29 (GenBank Accession No. ABK71854.1), 31 (GenBank Accession No. EFV11917.1), 37 (GenBank Accession No. EIV11143.1), and 38 (GenBank Accession No. ADG98140.1) such that N-terminal HIS tagged carboxylate reductases could be produced. Each of the modified genes was cloned into a pET Duet expression vector alongside a sfp gene encoding a His-tagged phosphopantetheine transferase from Bacillus subtilis, both under control of the T7 promoter.
Each expression vector was transformed into a BL21[DE3] E. coli host and the resulting recombinant E. coli strains were cultivated at 37° C. in a 250 mL shake flask culture containing 50 mL LB media and antibiotic selection pressure, with shaking at 230 rpm. Each culture was induced overnight at 37° C. using an auto-induction media.
The pellet from each induced shake flask culture was harvested via centrifugation. Each pellet was resuspended and lysed via sonication. The cell debris was separated from the supernatant via centrifugation. The carboxylate reductases and phosphopantetheine transferase were purified from the supernatant using Ni-affinity chromatography, diluted 10-fold into 50 mM HEPES buffer (pH=7.5) and concentrated via ultrafiltration.
Enzyme activity (i.e., 7-hydroxyheptanoate to 7-hydroxyheptanal) assays were performed in triplicate in a buffer composed of a final concentration of 50 mM HEPES buffer (pH=7.5), 2 mM […], 10 mM MgCl2, 1 mM ATP, and 1 mM NADPH. Each enzyme activity assay reaction was initiated by adding purified carboxylate reductase and phosphopantetheine transferase or the empty vector control to the assay buffer containing the 7-hydroxyheptanoate and then incubated at room temperature for 20 min. The consumption of NADPH was monitored by absorbance at 340 nm.

[2] = Carboxylate reductase activity, N7-acetyl-7-aminoheptanoate to N7-acetyl-7-aminoheptanal, NADPH consumption at 340 nm; type: biochemical; conditions: enhanced by gene product of sfp, 2 mM substrate, 20 min, against empty vector control, FIG. 45
Description: The activity of each of the N-terminal His-tagged carboxylate reductases of SEQ ID NOs: 29 (GenBank Accession No. ABK71854.1), 37 (Genbank Accession No. EIV11143.1), and 38 (GenBank Accession No. ADG98140.1) (see Examples 4) for converting N7-acetyl-7-aminoheptanoate to N7-acetyl-7-aminoheptanal was assayed in triplicate in a buffer composed of a final concentration of 50 mM HEPES buffer (pH=7.5), 2 mM N7-acetyl-7-aminoheptanoate, 10 mM MgCl2, 1 mM ATP, and 1 mM NADPH. The assays were initiated by adding purified carboxylate reductase and phosphopantetheine transferase or the empty vector control to the assay buffer containing the N7-acetyl-7-aminoheptanoate then incubated at room temperature for 20 min. The consumption of NADPH was monitored by absorbance at 340 nm.

B1: SEQ ID NO: 29: Mycobacterium smegmatis carboxylate reductase (protein)
chain: MTSDVHDATDGVTETALDDEQSTRRIAELYATDPEFAAAAPLPAVVDAAHKPGLRLAEILQTLFTGYGDRPALGYRARELATDEGGRTVTRLLPRFDTLTYAQVWSRVQAVAAALRHNFAQPIYPGDAVATIGFASPDYLTLDLVCAYLGLVSVPLQHNAPVSRLAPILAEVEPRILTVSAEYLDLAVESVRDVNSVSQLVVFDHHPEVDDHRDALARAREQLAGKGIAVTTLDAIADEGAGLPAEPIYTADHDQRLAMILYTSGSTGAPKGAMYTEAMVARLWTMSFITGDPTPVINVNFMPLNHLGGRIPISTAVQNGGTSYFVPESDMSTLFEDLALVRPTELGLVPRVADMLYQHHLATVDRLVTQGADELTAEKQAGAELREQVLGGRVITGFVSTAPLAAEMRAFLDITLGAHIVDGYGLTETGAVTRDGVIVRPPVIDYKLIDVPELGYFSTDKPYPRGELLVRSQTLTPGYYKRPEVTASVFDRDGYYHTGDVMAETAPDHLVYVDRRNNVLKLAQGEFVAVANLEAVFSGAALVRQIFVYGNSERSFLLAVVVPTPEALEQYDPAALKAALADSLQRTARDAELQSYEVPADFIVETEPFSAANGLLSGVGKLLRPNLKDRYGQRLEQMYADIAATQANQLRELRRAAATQPVIDTLTQAAATILGTGSEVASDAHFTDLGGDSLSALTLSNLLSDFFGFEVPVGTIVNPATNLAQLAQHIEAQRTAGDRRPSFTTVHGADATEIRASELTLDKFIDAETLRAAPGLPKVTTEPRTVLLSGANGWLGRFLTLQWLERLAPVGGTLITIVRGRDDAAARARLTQAYDTDPELSRRFAELADRHLRVVAGDIGDPNLGLTPEIWHRLAAEVDLVVHPAALVNHVLPYRQLFGPNVVGTAEVIKLALTERIKPVTYLSTVSVAMGIPDFEEDGDIRTVSPVRPLDGGYANGYGNSKWAGEVLLREAHDLCGLPVATFRSDMILAHPRYRGQVNVPDMFTRLLLSLLITGVAPRSFYIGDGERPRAHYPGLTVDFVAEAVTTLGAQQREGYVSYDVMNPHDDGISLDVFVDWLIRAGHPIDRVDDYDDWVRRFETALTALPEKRRAQTVLPLLHAFRAPQAPLRGAPEPTEVFHAAVRTAKVGPGDIPHLDEALIDKYIRDLREFGLI
modifications: Mycobacterium smegmatis (strain ATCC 700084 / mc(2)155)
notes: Mycobacterium smegmatis carboxylate reductase
acceptance of 7-hydroxyheptanoate as substrate, forming 7-hydroxyheptanal [1]: accepted 7-hydroxyheptanoate as substrate
acceptance of N7-acetyl-7-aminoheptanoate as substrate, forming N7-acetyl-7-aminoheptanal [2]: accepted N7-acetyl-7-aminoheptanoate as substrate

B2: SEQ ID NO: 37: Mycobacterium massiliense carboxylate reductase (protein)
chain: MTNETNPQQEQLSRRIESLRESDPQFRAAQPDPAVAEQVLRPGLHLSEAIAALMTGYAERPALGERARELVIDQDGRTTLRLLPRFDTTTYGELWSRTTSVAAAWHHDATHPVKAGDLVATLGFTSIDYTVLDLAIMILGGVAVPLQTSAPASQWTTILAEAEPNTLAVSIELIGAAMESVRATPSIKQVVVFDYTPEVDDQREAFEAASTQLAGTGIALETLDAVIARGAALPAAPLYAPSAGDDPLALLIYTSGSTGAPKGAMHSENIVRRWWIREDVMAGTENLPMIGLNFMPMSHIMGRGTLTSTLSTGGTGYFAASSDMSTLFEDMELIRPTALALVPRVCDMVFQRFQTEVDRRLASGDTASAEAVAAEVKADIRDNLFGGRVSAVMVGSAPLSEELGEFIESCFELNLTDGYGSTEAGMVFRDGIVQRPPVIDYKLVDVPELGYFSTDKPHPRGELLLKTDGMFLGYYKRPEVTASVFDADGFYMTGDIVAELAHDNIEIIDRRNNVLKLSQGEFVAVATLEAEYANSPVVHQIYVYGSSERSYLLAVVVPTPEAVAAAKGDAAALKTTIADSLQDIAKEIQLQSYEVPRDFIIEPQPFTQGNGLLTGIAKLARPNLKAHYGPRLEQMYAEIAEQQAAELRALHGVDPDKPALETVLKAAQALLGVSSAELAADAHFTDLGGDSLSALSFSDLLRDIFAVEVPVGVIVSAANDLGGVAKFVDEQRHSGGTRPTAETVHGAGHTEIRAADLTLDKFIDEATLHAAPSLPKAAGIPHTVLLTGSNGYLGHYLALEWLERLDKTDGKLIVIVRGKNAEAAYGRLEEAFDTGDTELLAHFRSLADKHLEVLAGDIGDPNLGLDADTWQRLADTVDVIVHPAALVNHVLPYNQLFGPNVVGTAEIIKLAITTKIKPVTYLSTVAVAAYVDPTTFDEESDIRLISAVRPIDDGYANGYGNAKWAGEVLLREAHDLCGLPVAVFRSDMILAHSRYTGQLNVPDQFTRLILSLIATGIAPGSFYQAQTTGERPLAHYDGLPGDFTAEAITTLGTQVPEGSEGFVTYDCVNPHADGISLDNFVDWLIEAGYPIARIDNYTEWFTRFDTAIRGLSEKQKQHSLLPLLHAFEQPSAAENHGVVPAKRFQHAVQAAGIGPVGQDGTTDIPHLSRRLIVKYAKDLEQLGLL
modifications: Mycobacterium abscessus subsp. bolletii 2B-0307
notes: Mycobacterium massiliense carboxylate reductase
acceptance of 7-hydroxyheptanoate as substrate, forming 7-hydroxyheptanal [1]: accepted 7-hydroxyheptanoate as substrate
acceptance of N7-acetyl-7-aminoheptanoate as substrate, forming N7-acetyl-7-aminoheptanal [2]: accepted N7-acetyl-7-aminoheptanoate as substrate
